# Laboratory results taken from the nanobody polyreactivity screen of Harvey et al. (2022).
# Test: yeast display, Sf9 membrane polyspecificity reagent, FACS + sequencing; frameworks hold sequencing errors
# Method in brief: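 In a synthetic yeast display library (Saccharomyces cerevisiae BJ5465), nanobody expression was induced with galactose for 36–48 hours. FACS gates were set low and high (top ~1%) using anti-HA fluorescence for expression and streptavidin fluorescence for binding of the Sf9 membrane reagent. Each polyreactivity label is drawn from the gate of origin.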
row,Sequence,polyreactivity (PSR sort gate)
1,QVQLVESGGGLVQAGGSLRLICAASGFIFLVNAMGWYRQAPGKERELVAAISLSTTSTYYADSVKGRFTISRDNAKNTVYLQMNSLKPEDTAVYYCAADHWGVGAPTYGQYTTHDYWGQGTQVTVSS,low polyreactivity
2,QVQLVESGGGLVQAGGSLRLICAASGFTFADNSMAWYRQAPGKEREFVASITYSTGSTYADSEKGRVTISRDNAKNTVYLEMHSLKPEDTAVYYCAVDNISNWAVENDDWGQGTLVTVSS,low polyreactivity
3,QVQLVESGGGLVQAGGSLRLICAASGFTFCLYAMGWYRQAPGKERELVADIDWDGGTYYADSVKGRFTISRDNAKNTVYLQMNSLKPEDTAVYYCAAELTEWTNGFDYWGQGTQETVSS,high polyreactivity
4,QVQLVESGGGLVQAGGSLRLICAASGFTFDFYAMGWYRQAPGKERELVATISYSGASTYYADSVKGRFTISRDNAKNTVYLEMNSLKPEVTAVYYCAAYYPTRYQYGTIWVAYNYWGQGTQVTVSS,low polyreactivity
5,QVQLVESGGGLVQAGGSLRLICAASGFTFGPYDMGGYRQAPGKERELVAAITDSSGSTHYADSVKGRFTISRDNAKNTVYLQMNSLKPEDTAVYYCAASDVVFALNGYYPGEDDYWGQGTQVTVSS,low polyreactivity
6,QVQLVESGGGLVQAGGSLRLICAASGFTFPSYAMGWYRQAPGKEREFVAGITKGGGNTYYADSVKGRFTISRDNAKNTVYLQMNSLIPEDTAVYYCAADRSSFYWSHGTVYGYDYWGQGTQVTVSS,low polyreactivity
7,QVQLVESGGGLVQAGGSLRLICAASGFTFPWNVMGWYRQAPGKERELVAAITYDGGGTYADSVKGRFTISRDNAKNTVYLQMNSLKPEDTAVYYCNADLIYGEEYDYWGQGTQVTVSS,low polyreactivity
8,QVQLVESGGGLVQAGGSLRLICAASGFTFPWYAMGWYRQAPGKERELVATITSGGRTNYADSVKGRFTISRDNAKNTVYLQMNSLKPEDTAVYYCAARASKYSYRTDPWHGDYWGQGTQVTVSS,high polyreactivity
9,QVQLVESGGGLVQAGGSLRLICAASGFTFSYYAMGWSRQAPGKERELVAANSWSGTSTYYADSVKGRFTISRDNAKNTVYLQMNSLKPEDTAVYYCAAGYSASRKVDYRGQGTQVTVSS,high polyreactivity
10,QVQLVESGGGLVQAGGSLRLICAASGGIFNYYAMGWYREAPGKERELVAAISASGGSTYYADSVKGRFTISRDNAKNTVYLQMNSLKPEDTAVYYCAAGLPYGYGYDYWGQGTQVTVSS,low polyreactivity
11,QVQLVESGGGLVQAGGSLRLICAASGGIFTRNDMGWYRQAPGKERELVAGISWRGGSTYYADSVKGRFTISRDNAKNTVYLQMNSLKPEDTAVYYCAALDTGGERDYWGQGTQVNVSS,low polyreactivity
12,QVQLVESGGGLVQAGGSLRLICAASGGIFVYYAMGWYRQAPGKERELVAAISSGGTTNYADSVKGRFTISRDNAKNTVYLQMNSLKPEDTAVYYCAIYVSWPLYYYWGQCTQVTVSS,low polyreactivity
13,QVQLVESGGGLVQAGGSLRLICAASGGTFWIYAMGWYRQAPGKERELVAGITTSGATTYYADSVKGRFTISRDNAKNTVYLQMNSLKPEDTAVYYCAADEYYRYEYWGQGTQVTVSS,low polyreactivity
14,QVQLVESGGGLVQAGGSLRLICAASGIIFSDYAMGWYRQAPGKERELVAAITGGGSTYYADSVKGRFTISRDNAKNTVYLQMNSLKPEDTAVYYCNADTWGFTYYYWGQGTQVTVSS,low polyreactivity
15,QVQLVESGGGLVQAGGSLRLICAASGIIFWAYDMGWYRQAPGKERELVAAITWGGGSTYYADSVKGRFTISRDNAKNTVYLQMNSLKPEDTAVYYCAADRYVFQGYGPEVDYWGQGTQVTVSS,low polyreactivity
16,QVQLVESGGGLVQAGGSLRLICAASGITFRRYGMGWYRQAPGKERELVATITSSVGSRTYYADSVKGRLTISRDNAKNTVYLQMNSLKPEDTAVYYCAADHRVYDYEYWGQGTQVTVSS,low polyreactivity
17,QVQLVESGGGLVQAGGSLRLICAASGLIFYKYAMGWYRQAPGKERELVAAITSGGSTNYADSVKGRFTISRDNAKNSVYLQMNSLKPEVTAVYYCNADYNHYLVVRWWYPPVDYWGQGSQVTVSS,low polyreactivity
18,QVQLVESGGGLVQAGGSLRLICAASGLILKNYAMGWYRQAPGKERELVAAITRSGGSTYYADSVKGRFTISRDNAKNTVYLQMNSLKPEDTAVYDCAARNPSGKGRYDYWGQGTQVTVSS,high polyreactivity
19,QVQLVESGGGLVQAGGSLRLICAASGLTFGSYAMGWYRQAPGKERELVAAISRSGGSTYYADSVKGRFTISRDNAKNTVYLQMNSLKPEDTAVYYCNAVNPYYAPTDRRVGYDYWGQGTQVTVSS,high polyreactivity
20,QVQLVESGGGLVQAGGSLRLICAASGLTFLNNAMGSYRQAPGKERELVAAISDGGSTNYADSVKGRFTISRDNAKNTVYLQMNSLKAEDTAVYYCAAVYTSASSGSWGQGTQVTVSS,low polyreactivity
21,QVQLVESGGGLVQAGGSLRLICAASGLTFPTYAMAWYRQAPGKERELVAAISRIGGRTYYADSVKGRFTISRDNAKNTVYLQMNSLKPEETAVYYCAADGIKGGVEYDYWGQGTQVTVSS,high polyreactivity
22,QVQLVESGGGLVQAGGSLRLICAASGLTFRVYTMGWYRQAPGQERELVASISRSGASTYYADSVKGRFTISRDNAKNTVYLQMNSLKPEDTAVYYCNAVTSWPRRDFDYWGQGTQVTVSS,high polyreactivity

row,Sequence,polyreactivity (PSR sort gate)
1,QVQLVESGGGLVQAGGSLRLICAASGLTSGLNAMGWYRPAPGKERELVATIRTNGGSTYYADSVKGRFTISRDNAKNNVYLQMNSLKPEDTAVYYCAADDKGGFAVEYDYWGQGTQVTVSS,low polyreactivity
2,QVQLVESGGGLVQAGGSLRLICAASGNIFTYYAMGWYRQAPWKERELVAAISSGDSTNYADSVKGRFTISRDNAKNTVYLQMNSLKPEDTAVYYCNVDRVPSRRYYAQKGYFRYYYWGQGTQVTVSS,high polyreactivity
3,QVQLVESGGGLVQAGGSLRLICAASGRIFFVNAMGWYRQAPGKERELVAAISRSAGRTYYADSVKGRFTISRDNAKNTVYLQMNSLKPEDTAVYYCATEGRTDYNREMEYWGQGTQVTVSS,low polyreactivity
4,QVQLVESGGGLVQAGGSLRLICAASGRIFGFNAMGWYRQAPGKERELVAAISGRSGRTYYADSVKGRFTISRDNAKITVYLQMNSLKPEDTAVYYCNTVGYRGPSWYDYWGQGTQVTVSS,high polyreactivity
5,QVQLVESGGGLVQAGGSLRLICAASGRIFGKNDMGWYREAPRKEREFVATIDWSGGSTYYADSVKGRFTISRDNAKNTVDLQMNSLIPEDNAVYYCAARQYWTTDLPFQRYYYWGQGTQVTVSS,low polyreactivity
6,QVQLVESGGGLVQAGGSLRLICAASGRIFGRYTMGWYRQAPGKETELVAGITYSGGSTYYADSVKGRFTISRDNAKNTVYLQMNSLKPEDTAVYYCAARWRGSGGFDYWGQGTQVTVSS,high polyreactivity
7,QVQLVESGGGLVQAGGSLRLICAASGRIFGYNAMGWYRQEPGKERELVAAISSGGSTYYADSVKGRFTISRDHAKNTVYLQMNSLKPEDTAVYYCAAEDYPPYTTEYDYWGQGTQVTVSS,low polyreactivity
8,QVQLVESGGGLVQAGGSLRLICAASGRIFGYYAMGWYRQAPGKERELVAAISRAGSTYYADSVKGRFTISRDNAKNTVSLQMNSLKPEDTAVYYCAAVRSVQRHYTEMYYWGQVTQVTVSS,high polyreactivity
9,QVQLVESGGGLVQAGGSLRLICAASGRIFGYYAMGWYRQAPGKERELVATITFGGGSSYYADSVKGRFTISRDNAKNTVNLQMNSLKPEDTAVYYCAAVSGYLGIYGDEYSWGQGTQVTVSS,low polyreactivity
10,QVQLVESGGGLVQAGGSLRLICAASGRIFGYYTMGRYRQAPGKERELVADNNRDGSTYADSVKGRFTISRDNAKNSVYIQMNSLKPEDTAVYYCIAQYDSAYGLGFFIGYFSQYDYWGQGTQVTVSS,low polyreactivity
11,QVQLVESGGGLVQAGGSLRLICAASGRIFHGNAMGWYRQAPGKERELVAAISRRGGSTYYADSVKGRFTISRDNAKNTVYLQMNSLKPEDTAVYYCASVYYNGIRYGYWGQGTQVTVSS,high polyreactivity
12,QVQLVESGGGLVQAGGSLRLICAASGRIFKINAMGWYRQAPGKERELVAGISGSGSDTYYADSVKGSFTISRDNAKYTVYLQMNSLKPEDTAVYYCAAVAYDWALFYYWGQGTQVTVSS,low polyreactivity
13,QVQLVESGGGLVQAGGSLRLICAASGRIFLNSTMGSYRQEPGKERELVADITWRGGSTYYADSVKGRFTISRDNAKNTVYLQMNSLKPEDTAVYYWNAVSVSSKRSDYWVQGTQVTVSS,low polyreactivity
14,QVQLVESGGGLVQAGGSLRLICAASGRIFRYNALGWYRQAPGKERELVATISGTSRTKYADSVKGRFTISRDNAKHTVYLQMNSLKPEDTAVYYCAARRYGWGRAQSSASYDHWGQGTQVTVSS,high polyreactivity
15,QVQLVESGGGLVQAGGSLRLICAASGRIFRYYAMGWYRQAPGKERELVAAISYSGGSTYYADSVKGRFTISRDNEKNTVYLQMNILKPEDTAVYYCNAGSWKSYYSTVRYLTYSMYYWGQGTQVTVSS,high polyreactivity
16,QVQLVESGGGLVQAGGSLRLICAASGRIFSGNTMGWYRQAPGKERELVAAISKSGGRTYYADSVKGRFTISRDNAKYTFYLQMNSLKPEDTAVYYCNADYRSHYLYDYWGQGTQVTVSS,low polyreactivity
17,QVQLVESGGGLVQAGGSLRLICAASGRIFWQYAMGWYRQAPGKERELVAAISRSGGSTYYADSVKGRFTISRDNAKNTVYLQMNSLKPEDTAVYYCAARKASGVPGSAGRPEYYYWGQGTQVTVSS,high polyreactivity
18,QVQLVESGGGLVQAGGSLRLICAASGRIFWSNAMRWSRQAPGKVSELVAAISSGGSTYYADSVKGRFTISRDNAKNTVYLQMNRLKPEDTAVYYCATRGIQRGFSRWGGLDYWGQGTLVTVSS,low polyreactivity
19,QVQLVESGGGLVQAGGSLRLICAASGRIFYFYAMGWYRQAPGKERELVAAISTSGGSTYYADSVKGRFTISRDNAKNTVYLQMNSLKPEDTAVYYCAARFRYYGSEYDYWGQGTQVTVSS,low polyreactivity
20,QVQLVESGGGLVQAGGSLRLICAASGRIFYGYAMGWYRQAPGKEREFVAAITVSAGSTYYADSVKGRFTISRDYAKNTVYLQMNSLKPEDTAVYYCAAKRYVYPSYRFDYWGQGTQVTVSS,low polyreactivity
21,QVQLVESGGGLVQAGGSLRLICAASGRIFYNNAMGWYRQARGKERELVAGISRSSGRTYYADSVTGRFTISRDNAKNTGYLQMNSLKPVDTAVYYCAADWHYRSTARRMGYWGQGTQVTVSS,high polyreactivity
